{"source": "paper PMC12384205", "target": "RGD-binding integrins on HeLa cells (α5β1, αvβ5, αvβ3) (human (endogenous in HeLa))", "test": "resonant waveguide grating (RWG) live-cell competitive adhesion assay; sensor coated with 50% PPR (RGD peptide); HeLa cells (8000 per well) with soluble S1 or BSA in HEPES-HBSS, 90 min; normalised adhesion fitted with a sigmoidal curve; Kd calculated from the IC50 with [RGD] 2.39 µM and Kd^RGD 9.4 µM", "note": "pIC50, pKd: −log10 of the molar value.", "data": [{"substance": "recombinant human coronavirus SARS-CoV-2 Spike Glycoprotein S1 (Active)", "values": [{"measurement": "pIC50", "result": 5.85}, {"measurement": "pKd", "result": 5.95}]}]}
